# Article PMC7240051
# Target: BnaA10.ABF2-cYFP (Brassica napus)
"dual-luciferase assay in tobacco leaves: activity of pBnaC9.RAB18-LUC with BnaA6.RGA expressed together with BnaA10.ABF2, against the reporter only (BnaA10.ABF2 alone: 3.7 times)","dual-luciferase assay in tobacco leaves: activity of pBnaC9.RAB18-LUC with BnaC7.RGA expressed together with BnaA10.ABF2, against the reporter only (BnaA10.ABF2 alone: 3.7 times)",Substance
6.5 times,–,BnaA6.RGA-nYFP (full length) (natural protein)
–,11.8 times,BnaC7.RGA-nYFP (full length) (natural protein)
